Reference: PMC9482650, “Quantitative fragmentomics allow affinity mapping of interactomes” (Nature Communications, 2022)

Tests used:
Experiment in all cases: holdup assay
Parameters in all cases: key: below the threshold = too weak to quantify, mostly under pKd 3.1 to 4
ARHGAP21, Q5T5U3 = molecular target: T1, ARHGAP21, Q5T5U3
T1 sequence (Q5T5U3 45-169, limits assumed, looked up): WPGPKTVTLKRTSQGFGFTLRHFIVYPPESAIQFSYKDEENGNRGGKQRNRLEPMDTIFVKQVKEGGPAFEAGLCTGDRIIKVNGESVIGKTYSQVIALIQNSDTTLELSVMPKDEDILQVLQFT

ARHGEF11, O15085 = molecular target: T2, ARHGEF11, O15085
T2 sequence (O15085 42-136, limits assumed, looked up): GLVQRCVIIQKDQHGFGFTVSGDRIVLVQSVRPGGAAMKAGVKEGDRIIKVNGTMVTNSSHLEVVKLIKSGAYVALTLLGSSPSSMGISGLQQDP

DLG3_2, Q92796 = molecular target: T3, DLG3_2, Q92796
T3 sequence (Q92796 221-321, limits assumed, looked up): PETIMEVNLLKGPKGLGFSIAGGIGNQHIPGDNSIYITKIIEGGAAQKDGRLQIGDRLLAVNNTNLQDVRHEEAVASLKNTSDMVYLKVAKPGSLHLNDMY

DLG5_1, Q8TDM6 = molecular target: DLG5_1, Q8TDM6
Sequence of DLG5_1, Q8TDM6 (Q8TDM6 617-713): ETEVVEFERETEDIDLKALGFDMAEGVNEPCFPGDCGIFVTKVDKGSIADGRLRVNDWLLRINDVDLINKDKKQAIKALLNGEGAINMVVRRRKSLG

GORASP1, Q9BQQ3 = molecular target: GORASP1, Q9BQQ3
Sequence of GORASP1, Q9BQQ3 (Q9BQQ3 1-208): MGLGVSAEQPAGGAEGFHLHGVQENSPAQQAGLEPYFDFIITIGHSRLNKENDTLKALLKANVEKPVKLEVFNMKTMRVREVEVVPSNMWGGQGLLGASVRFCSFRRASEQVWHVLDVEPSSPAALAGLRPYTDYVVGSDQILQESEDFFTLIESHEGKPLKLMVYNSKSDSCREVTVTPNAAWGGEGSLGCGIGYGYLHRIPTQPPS

GRIP2_5, Q9C0E4 = molecular target: GRIP2_5, Q9C0E4
Sequence of GRIP2_5, Q9C0E4 (Q9C0E4 544-642): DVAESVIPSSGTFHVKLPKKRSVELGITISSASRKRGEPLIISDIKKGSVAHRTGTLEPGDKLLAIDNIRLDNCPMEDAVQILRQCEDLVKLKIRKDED

IL16_1, Q14005 = molecular target: IL16_1, Q14005
Sequence of IL16_1, Q14005 (Q14005 210-306): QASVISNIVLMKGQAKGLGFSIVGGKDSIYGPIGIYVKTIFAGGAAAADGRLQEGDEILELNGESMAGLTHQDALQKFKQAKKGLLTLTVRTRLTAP

IL16_4, Q14005 = molecular target: IL16_4, Q14005
Sequence of IL16_4, Q14005 (Q14005 1229-1329): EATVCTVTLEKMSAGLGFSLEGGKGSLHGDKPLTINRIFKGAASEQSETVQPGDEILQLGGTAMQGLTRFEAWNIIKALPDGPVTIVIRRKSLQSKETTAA

Inadl_2, Q8NI35 = molecular target: Inadl_2, Q8NI35
Sequence of Inadl_2, Q8NI35 (Q8NI35 238-335): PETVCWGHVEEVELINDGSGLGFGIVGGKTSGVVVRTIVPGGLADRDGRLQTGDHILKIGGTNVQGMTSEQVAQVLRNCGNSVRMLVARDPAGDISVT

Inadl_8, Q8NI35 = molecular target: Inadl_8, Q8NI35
Sequence of Inadl_8, Q8NI35 (Q8NI35 1425-1530): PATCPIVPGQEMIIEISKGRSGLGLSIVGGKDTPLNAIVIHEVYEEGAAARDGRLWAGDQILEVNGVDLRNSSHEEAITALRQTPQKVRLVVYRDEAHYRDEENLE

LDB3, O75112 = molecular target: LDB3, O75112
Sequence of LDB3, O75112 (O75112 1-94): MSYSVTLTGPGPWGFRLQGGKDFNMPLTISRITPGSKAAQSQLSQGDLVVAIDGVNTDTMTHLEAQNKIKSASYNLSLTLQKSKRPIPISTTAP

LNX2_2, Q8N448 = molecular target: T4, LNX2_2, Q8N448
T4 sequence (Q8N448 334-432, limits assumed, looked up): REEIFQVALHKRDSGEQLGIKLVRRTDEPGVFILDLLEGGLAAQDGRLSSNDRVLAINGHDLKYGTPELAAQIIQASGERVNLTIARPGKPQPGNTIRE

MAST1, Q9Y2H9 = molecular target: MAST1, Q9Y2H9
Sequence of MAST1, Q9Y2H9 (Q9Y2H9 962-1065): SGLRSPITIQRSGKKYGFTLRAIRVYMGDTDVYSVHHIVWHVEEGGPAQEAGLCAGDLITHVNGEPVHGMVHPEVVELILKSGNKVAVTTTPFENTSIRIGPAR

MAST2, Q6P0Q8 = molecular target: MAST2, Q6P0Q8
Sequence of MAST2, Q6P0Q8 (Q6P0Q8 1099-1202): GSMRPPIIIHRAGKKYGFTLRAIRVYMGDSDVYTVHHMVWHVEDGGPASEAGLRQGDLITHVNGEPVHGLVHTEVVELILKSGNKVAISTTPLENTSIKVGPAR

MPP6, Q9NZW5 = molecular target: T5, MPP6, Q9NZW5
T5 sequence (Q9NZW5 125-219, limits assumed, looked up): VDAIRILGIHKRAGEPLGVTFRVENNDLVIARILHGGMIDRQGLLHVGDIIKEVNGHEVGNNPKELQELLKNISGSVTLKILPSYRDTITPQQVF

NHERF2_2, Q15599 = molecular target: NHERF2_2, Q15599
Sequence of NHERF2_2, Q15599 (Q15599 142-238): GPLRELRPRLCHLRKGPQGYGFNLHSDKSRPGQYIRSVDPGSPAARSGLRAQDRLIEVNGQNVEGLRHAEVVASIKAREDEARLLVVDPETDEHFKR

NHERF3_3, Q5T2W1 = molecular target: T6, NHERF3_3, Q5T2W1
T6 sequence (Q5T2W1 238-333, limits assumed, looked up): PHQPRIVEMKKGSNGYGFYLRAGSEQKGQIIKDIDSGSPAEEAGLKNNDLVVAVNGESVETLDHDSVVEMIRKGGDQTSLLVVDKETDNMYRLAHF

NHERF4_4, Q86UT5 = molecular target: NHERF4_4, Q86UT5
Sequence of NHERF4_4, Q86UT5 (Q86UT5 464-550): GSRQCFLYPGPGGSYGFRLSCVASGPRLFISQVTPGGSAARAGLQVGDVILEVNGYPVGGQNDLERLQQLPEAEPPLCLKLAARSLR

PCLO, Q9Y6V0 = molecular target: T7, PCLO, Q9Y6V0
T7 sequence (Q9Y6V0 4491-4600, limits assumed, looked up): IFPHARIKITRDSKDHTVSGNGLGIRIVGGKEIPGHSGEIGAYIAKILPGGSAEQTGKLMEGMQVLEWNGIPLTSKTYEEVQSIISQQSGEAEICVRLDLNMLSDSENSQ

PDZRN3_1, Q9UPQ7 = molecular target: T8, PDZRN3_1, Q9UPQ7
T8 sequence (Q9UPQ7 244-349, limits assumed, looked up): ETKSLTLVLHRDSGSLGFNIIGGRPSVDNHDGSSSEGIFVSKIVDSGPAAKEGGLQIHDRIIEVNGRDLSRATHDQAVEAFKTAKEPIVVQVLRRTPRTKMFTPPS

PICK1, Q9NRD5 = molecular target: PICK1, Q9NRD5
Sequence of PICK1, Q9NRD5 (Q9NRD5 17-115): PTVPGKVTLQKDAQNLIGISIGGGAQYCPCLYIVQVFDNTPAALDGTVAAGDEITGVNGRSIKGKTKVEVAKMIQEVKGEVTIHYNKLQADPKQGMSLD

PTPN3, P26045 = molecular target: PTPN3, P26045
Sequence of PTPN3, P26045 (P26045 505-587): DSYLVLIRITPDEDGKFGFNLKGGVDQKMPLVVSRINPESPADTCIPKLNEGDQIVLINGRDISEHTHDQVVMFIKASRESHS

RHPN1, Q8TCX5 = molecular target: T9, RHPN1, Q8TCX5
T9 sequence (Q8TCX5 508-602, limits assumed, looked up): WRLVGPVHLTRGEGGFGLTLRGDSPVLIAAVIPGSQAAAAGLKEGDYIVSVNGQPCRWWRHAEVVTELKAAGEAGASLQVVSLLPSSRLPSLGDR

SHANK1, Q9Y566 = molecular target: T10, SHANK1, Q9Y566
T10 sequence (Q9Y566 658-767, limits assumed, looked up): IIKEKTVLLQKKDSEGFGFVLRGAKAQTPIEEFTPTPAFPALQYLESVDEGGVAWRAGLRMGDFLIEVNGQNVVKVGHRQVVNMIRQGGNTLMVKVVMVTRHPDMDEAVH

SIPA1L2, Q9P2F8 = molecular target: T11, SIPA1L2, Q9P2F8
T11 sequence (Q9P2F8 945-1036, limits assumed, looked up): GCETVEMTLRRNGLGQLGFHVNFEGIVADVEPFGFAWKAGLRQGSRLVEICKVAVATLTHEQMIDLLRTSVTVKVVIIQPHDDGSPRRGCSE

SNX27, Q96L92 = molecular target: SNX27, Q96L92
TJP1_2, Q07157 = molecular target: TJP1_2, Q07157
Sequence of TJP1_2, Q07157 (Q07157 181-274): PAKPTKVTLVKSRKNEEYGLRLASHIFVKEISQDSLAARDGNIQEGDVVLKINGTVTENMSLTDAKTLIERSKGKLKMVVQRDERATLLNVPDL

[1] = plain residues with an end cap or a label only (N-terminal biotin on a linker: ttds)
[2] = plain residues with an end cap or a label only (N-terminal biotin on a linker: ado-ado)

Binder: QFQYAKESYI [TAGAP, Q8N103]
- pKd (ARHGAP21, Q5T5U3; [1]): below the threshold
- pKd (ARHGEF11, O15085; [1]): below the threshold
- pKd (DLG3_2, Q92796; [1]): 4.15
- pKd (DLG5_1, Q8TDM6; [1]): below the threshold
- pKd (GORASP1, Q9BQQ3; [1]): 3.9
- pKd (GRIP2_5, Q9C0E4; [1]): below the threshold
- pKd (IL16_1, Q14005; [1]): 4.65
- pKd (IL16_4, Q14005; [1]): below the threshold
- pKd (Inadl_2, Q8NI35; [1]): below the threshold
- pKd (Inadl_8, Q8NI35; [1]): 3.78
- pKd (LDB3, O75112; [1]): below the threshold
- pKd (LNX2_2, Q8N448; [1]): below the threshold
- pKd (MAST1, Q9Y2H9; [1]): 3.54
- pKd (MAST2, Q6P0Q8; [1]): 4.69
- pKd (MPP6, Q9NZW5; [1]): below the threshold
- pKd (NHERF2_2, Q15599; [1]): below the threshold
- pKd (NHERF3_3, Q5T2W1; [1]): below the threshold
- pKd (NHERF4_4, Q86UT5; [1]): below the threshold
- pKd (PCLO, Q9Y6V0; [1]): below the threshold
- pKd (PDZRN3_1, Q9UPQ7; [1]): 4.18
- pKd (PICK1, Q9NRD5; [1]): below the threshold
- pKd (PTPN3, P26045; [1]): 4.84
- pKd (RHPN1, Q8TCX5; [1]): 4.68
- pKd (SHANK1, Q9Y566; [1]): below the threshold
- pKd (SIPA1L2, Q9P2F8; [1]): below the threshold
- pKd (SNX27, Q96L92; [1]): 3.75
- pKd (TJP1_2, Q07157; [1]): below the threshold

Binder: FVHPILQSAV [PRKCA, P17252]
- pKd (ARHGAP21, Q5T5U3; [2]): 3.84
- pKd (ARHGEF11, O15085; [2]): 4.17
- pKd (DLG3_2, Q92796; [2]): 4.26
- pKd (DLG5_1, Q8TDM6; [2]): below the threshold
- pKd (GORASP1, Q9BQQ3; [2]): below the threshold
- pKd (GRIP2_5, Q9C0E4; [2]): below the threshold
- pKd (IL16_1, Q14005; [2]): 4.33
- pKd (IL16_4, Q14005; [2]): below the threshold
- pKd (Inadl_2, Q8NI35; [2]): below the threshold
- pKd (Inadl_8, Q8NI35; [2]): 4.71
- pKd (LDB3, O75112; [2]): below the threshold
- pKd (LNX2_2, Q8N448; [2]): below the threshold
- pKd (MAST1, Q9Y2H9; [2]): 4.23
- pKd (MAST2, Q6P0Q8; [2]): 5.35
- pKd (MPP6, Q9NZW5; [2]): below the threshold
- pKd (NHERF2_2, Q15599; [2]): below the threshold
- pKd (NHERF3_3, Q5T2W1; [2]): below the threshold
- pKd (NHERF4_4, Q86UT5; [2]): below the threshold
- pKd (PCLO, Q9Y6V0; [2]): below the threshold
- pKd (PDZRN3_1, Q9UPQ7; [2]): 4.21
- pKd (PICK1, Q9NRD5; [2]): below the threshold
- pKd (PTPN3, P26045; [2]): 4.59
- pKd (RHPN1, Q8TCX5; [2]): 4.18
- pKd (SHANK1, Q9Y566; [2]): 4.34
- pKd (SIPA1L2, Q9P2F8; [2]): below the threshold
- pKd (SNX27, Q96L92; [2]): 4.68
- pKd (TJP1_2, Q07157; [2]): below the threshold

Binder: LCALPKVTTV [AGMAT, Q9BSE5]
- pKd (ARHGAP21, Q5T5U3; [1]): below the threshold
- pKd (ARHGEF11, O15085; [1]): 4.52
- pKd (DLG3_2, Q92796; [1]): 5.31
- pKd (DLG5_1, Q8TDM6; [1]): below the threshold
- pKd (GORASP1, Q9BQQ3; [1]): 4.11
- pKd (GRIP2_5, Q9C0E4; [1]): below the threshold
- pKd (IL16_1, Q14005; [1]): 4.06
- pKd (IL16_4, Q14005; [1]): below the threshold
- pKd (Inadl_2, Q8NI35; [1]): below the threshold
- pKd (Inadl_8, Q8NI35; [1]): 4.82
- pKd (LDB3, O75112; [1]): below the threshold
- pKd (LNX2_2, Q8N448; [1]): 5.21
- pKd (MAST1, Q9Y2H9; [1]): 3.88
- pKd (MAST2, Q6P0Q8; [1]): 4.88
- pKd (MPP6, Q9NZW5; [1]): 3.54
- pKd (NHERF2_2, Q15599; [1]): below the threshold
- pKd (NHERF3_3, Q5T2W1; [1]): below the threshold
- pKd (NHERF4_4, Q86UT5; [1]): below the threshold
- pKd (PCLO, Q9Y6V0; [1]): below the threshold
- pKd (PDZRN3_1, Q9UPQ7; [1]): below the threshold
- pKd (PICK1, Q9NRD5; [1]): below the threshold
- pKd (PTPN3, P26045; [1]): 4.4
- pKd (RHPN1, Q8TCX5; [1]): 4.24
- pKd (SHANK1, Q9Y566; [1]): below the threshold
- pKd (SIPA1L2, Q9P2F8; [1]): below the threshold
- pKd (SNX27, Q96L92; [1]): 4.43
- pKd (TJP1_2, Q07157; [1]): below the threshold

Binder: TETASVCTKV [SLC23A1, Q9UHI7]
- pKd (ARHGAP21, Q5T5U3; [2]): 3.94
- pKd (ARHGEF11, O15085; [2]): 4.24
- pKd (DLG3_2, Q92796; [2]): 4.02
- pKd (DLG5_1, Q8TDM6; [2]): below the threshold
- pKd (GORASP1, Q9BQQ3; [2]): 3.87
- pKd (GRIP2_5, Q9C0E4; [2]): below the threshold
- pKd (IL16_1, Q14005; [2]): below the threshold
- pKd (IL16_4, Q14005; [2]): 3.55
- pKd (Inadl_2, Q8NI35; [2]): below the threshold
- pKd (Inadl_8, Q8NI35; [2]): 4.01
- pKd (LDB3, O75112; [2]): below the threshold
- pKd (LNX2_2, Q8N448; [2]): 3.91
- pKd (MAST1, Q9Y2H9; [2]): 4.85
- pKd (MAST2, Q6P0Q8; [2]): 5.47
- pKd (MPP6, Q9NZW5; [2]): 3.87
- pKd (NHERF2_2, Q15599; [2]): 4.16
- pKd (NHERF3_3, Q5T2W1; [2]): 3.7
- pKd (NHERF4_4, Q86UT5; [2]): 3.89
- pKd (PCLO, Q9Y6V0; [2]): below the threshold
- pKd (PDZRN3_1, Q9UPQ7; [2]): 3.53
- pKd (PICK1, Q9NRD5; [2]): 4.24
- pKd (PTPN3, P26045; [2]): 3.97
- pKd (RHPN1, Q8TCX5; [2]): 4.38
- pKd (SHANK1, Q9Y566; [2]): 4.42
- pKd (SIPA1L2, Q9P2F8; [2]): below the threshold
- pKd (SNX27, Q96L92; [2]): 4.85
- pKd (TJP1_2, Q07157; [2]): 3.5
